Data: the supplement of paper PMC7877785
± gives the uncertainty stated by the source.

Experiment: self-splicing fitness, log relative to wild type (ln ratio); higher = more splicing; Tetrahymena group I intron in knt gene, E. coli kanamycin selection, DiMSum; sequences stand for … in CUCUCU…GGAGGGAAAAGUUAUCAGGCAUGCACCUGGUAGCUAGUCUUUAAACCAAUAGAUUGCAUCGGUUUAAAAGGCAAGACCGUCAAAUUGCGGGAAAGGGGUCAACAGCCGUUCAGUACCAAGUCUCAGGGGAAACUUUGAGAUGGCCUUGCAAAGGGUAUGGUAAUAAGCUGACGGACAUGGUCCUAACCACGCAGCCAAGUCCUAAGUCAACAGAUCUUCUGUUGAUAUGGAUGCAGUUCACAGACUAAAUGUCGGUCGGGGAAGAUGUAUUCUUCUCAUAAGAUAUAGUCGGACCUCUCCUUAAUGGGAGCUAGCGGAUGAAGUGAUGCAACACUGGAGCCGCUGGGAACUAAUUUGUAUGCGAAAGUAUAUUGAUUAGUUUUGGAGUACUCGUGGUCG
Summary of the method: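 DiMSum derived fitness as the error-weighted combination of fold changes across replicates, kanamycin versus no kanamycin, normalised to wild type. E. coli BL21(DE3) held the library, which randomised all eight P1ex-region intron nucleotides within the knt kanamycin-resistance gene on pET-22b(+). Six replicate transformations grew overnight at 37°C or 30°C on LB agar with or without 25 μg/mL kanamycin, also containing 100 μg/mL carbenicillin, 50 μM IPTG and 0.2% rhamnose, and pooled colonies were amplicon-sequenced on an Illumina HiSeq 2500.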

| Sequence | self-splicing fitness (ln) (30 °C) | self-splicing fitness (ln) (37 °C) |
| --- | --- | --- |
| GCACAGCAAUAUUACGUUAG | -2.6 ± 0.091 | -1.85 ± 0.11 |
| GCAGAGCAAUAUUACGAACC | -1.87 ± 0.32 | -1.24 ± 0.33 |
| GCAGAGCAAUAUUACGAAGA | -1.88 ± 0.36 |  |
| GCAGAGCAAUAUUACGACGC | -3.56 ± 0.3 | -1.69 ± 0.18 |
| GCAGAGCAAUAUUACGAGAC | -3.42 ± 0.21 | -2.03 ± 0.12 |
| GCAGAGCAAUAUUACGAGGG | -3.47 ± 0.22 | -2.2 ± 0.24 |
| GCAGAGCAAUAUUACGAUAA | -3.38 ± 0.41 | -2.72 ± 0.44 |
| GCAGAGCAAUAUUACGCACC | -2.11 ± 0.45 | -1.17 ± 0.48 |
| GCAGAGCAAUAUUACGCAUG |  | -2.3 ± 0.39 |
| GCAGAGCAAUAUUACGCCGC | -2.91 ± 0.38 |  |
| GCAGAGCAAUAUUACGCUGA | -2.11 ± 0.29 | -0.433 ± 0.19 |
| GCAGAGCAAUAUUACGGAUA | -1.48 ± 0.32 | -2.92 ± 0.4 |
| GCAGAGCAAUAUUACGGCCA |  | -2.11 ± 0.29 |
| GCAGAGCAAUAUUACGGCCU |  | -1.69 ± 0.28 |
| GCAGAGCAAUAUUACGGCGU | -0.715 ± 0.099 | -0.614 ± 0.11 |
| GCAGAGCAAUAUUACGGGAU | -3.53 ± 0.2 | -2.21 ± 0.19 |
| GCAGAGCAAUAUUACGGGCG | -3.2 ± 0.17 | -0.961 ± 0.14 |
| GCAGAGCAAUAUUACGGGGC | -3.05 ± 0.36 |  |
| GCAGAGCAAUAUUACGGUAU | -3.23 ± 0.15 |  |
| GCAGAGCAAUAUUACGUAAC | -2.84 ± 0.29 | 0.113 ± 0.22 |
| GCAGAGCAAUAUUACGUAGC | -3.31 ± 0.25 | -2.77 ± 0.22 |
| GCAGAGCAAUAUUACGUCAU |  | -1.4 ± 0.42 |
| GCAGAGCAAUAUUACGUGCA | -3.08 ± 0.29 | -2.21 ± 0.23 |
| GCAGAGCAAUAUUACGUUUA | -2.56 ± 0.3 |  |
| GCAUAGCAAUAUUACGAAUA | -2.07 ± 0.17 | -1.38 ± 0.19 |
| GCAUAGCAAUAUUACGACGC | -0.867 ± 0.13 | -0.196 ± 0.13 |

| Sequence | self-splicing fitness (ln) (30 °C) | self-splicing fitness (ln) (37 °C) |
| --- | --- | --- |
| GCAUAGCAAUAUUACGACUG | -1.68 ± 0.12 | -0.65 ± 0.16 |
| GCAUAGCAAUAUUACGAGAA | -2.57 ± 0.46 | -2.67 ± 0.41 |
| GCAUAGCAAUAUUACGAGCG | -1.3 ± 0.077 | -1.05 ± 0.085 |
| GCAUAGCAAUAUUACGAGGA | -2.47 ± 0.32 | -2.21 ± 0.22 |
| GCAUAGCAAUAUUACGAUAU | -1.9 ± 0.084 | 0.148 ± 0.09 |
| GCAUAGCAAUAUUACGAUUG | -2.38 ± 0.14 | -1.67 ± 0.15 |
| GCAUAGCAAUAUUACGCAGA | -2.62 ± 0.31 | -2.06 ± 0.17 |
| GCAUAGCAAUAUUACGCCUU |  | -1.42 ± 0.21 |
| GCAUAGCAAUAUUACGCGAA | -2.13 ± 0.1 | -1.62 ± 0.12 |
| GCAUAGCAAUAUUACGCGAU | -3.36 ± 0.16 | -1.93 ± 0.14 |
| GCAUAGCAAUAUUACGGCCG | -2.37 ± 0.36 | -0.909 ± 0.39 |
| GCAUAGCAAUAUUACGGGAC | -2.49 ± 0.17 | -0.217 ± 0.14 |
| GCAUAGCAAUAUUACGGGCG | -1.84 ± 0.12 | -1.09 ± 0.11 |
| GCAUAGCAAUAUUACGGUGG | -2.55 ± 0.15 | -1.31 ± 0.13 |
| GCAUAGCAAUAUUACGUAUA | -3.23 ± 0.29 | -1.52 ± 0.24 |
| GCAUAGCAAUAUUACGUAUC | -3.24 ± 0.21 | -2.49 ± 0.22 |
| GCAUAGCAAUAUUACGUGAC | -2.49 ± 0.2 | -0.677 ± 0.14 |
| GCAUAGCAAUAUUACGUGUC | -3.89 ± 0.2 | -1.96 ± 0.2 |
| GCAUAGCAAUAUUACGUUCU | -2 ± 0.096 | -0.899 ± 0.1 |
| GCAUAGCAAUAUUACGUUUA | -2.47 ± 0.16 | -1.61 ± 0.12 |
| GCAUAGCAAUAUUACGUUUU | -3.61 ± 0.19 | -1.82 ± 0.19 |
| GCCAAGCAAUAUUACGAGCA | -1.82 ± 0.14 | -1.11 ± 0.15 |
| GCCAAGCAAUAUUACGCAAG | -2.89 ± 0.17 | -1.7 ± 0.2 |
| GCCAAGCAAUAUUACGCACG | -2.84 ± 0.23 | -1.08 ± 0.16 |
| GCCAAGCAAUAUUACGCAUA | -1.3 ± 0.09 | -0.709 ± 0.085 |
